These results are taken from patent US20060246004A1 (Genentech, published 2006).

Test [1] addresses human FcRn (human) (UniProt P55899). The experiment in a line: BIAcore, FcRn immobilised, pH 6.0. On the technique in general: SPR reads the build-up and loss of mass on a sensor chip optically.
Test [2] has the same target. The experiment in a line: BIAcore equilibrium analysis, FcRn immobilised on CM5 chip, pH 6.0.
The target of the next test is rat FcRn (rat) (UniProt P13599). The experiment in a line: BIAcore, FcRn immobilised.
Sequence of rat FcRn (rat) (P13599 23-298 limits assumed): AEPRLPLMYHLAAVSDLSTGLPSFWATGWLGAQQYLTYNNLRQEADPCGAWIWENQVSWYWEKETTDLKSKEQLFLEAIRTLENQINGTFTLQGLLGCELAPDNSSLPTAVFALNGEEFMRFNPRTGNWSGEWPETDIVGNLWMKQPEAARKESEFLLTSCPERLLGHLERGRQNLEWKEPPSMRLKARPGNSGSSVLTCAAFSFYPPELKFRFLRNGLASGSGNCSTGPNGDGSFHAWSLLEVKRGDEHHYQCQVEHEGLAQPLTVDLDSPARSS
Test [3] addresses T1, human CD20 on WIL2-S cells (human, UniProt P11836 1-297).
T1 construct: whole, on cells; also called CD20 antigen; hCD20
T1 sequence (looked up): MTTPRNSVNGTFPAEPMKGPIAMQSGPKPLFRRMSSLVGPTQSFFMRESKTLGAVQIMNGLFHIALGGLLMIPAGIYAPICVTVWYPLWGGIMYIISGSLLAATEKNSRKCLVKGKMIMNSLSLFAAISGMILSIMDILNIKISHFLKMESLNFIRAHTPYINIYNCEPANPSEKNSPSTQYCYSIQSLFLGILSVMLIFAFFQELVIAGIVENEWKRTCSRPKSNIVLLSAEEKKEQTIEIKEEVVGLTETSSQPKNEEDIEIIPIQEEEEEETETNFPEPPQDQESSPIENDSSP
The experiment in a line: cell-based ELISA, WIL2-S cells; conc. 2H7.v16 / conc. variant. For orientation: An ELISA detects its analyte on a solid surface through an enzyme-linked reagent.
Procedure: To measure relative binding affinities to the CD20 antigen, a cell-based ELISA assay was developed. […] The cells were washed with PBS containing 1% FBS (assay buffer) and seeded at 250-300,000 cell/well in 96-well round bottom plates (Nunc, Roskilde, Denmark). […] The plates were buried in ice and incubated for 45 min. To remove the unbound antibody, 0.1 mL assay buffer were added to the wells. Plates were centrifuged and supernatants were removed. Cells were washed two more times with 0.2 mL assay buffer. Antibody bound to the plates was detected by adding peroxidase conjugated goat anti-human Fc antibody (Jackson ImmunoResearch, West Grove, Pa.) to the plates. After a 45 min incubation, cells were washed as described before. TMB substrate (3,3′,5,5′-tetramethyl benzidine; Kirkegaard & Perry Laboratories, Gaithersburg, Md.) was added to the plates. The reaction was stopped by adding 1 M phosphoric acid. Titration curves were fit with a four-parameter nonlinear regression curve-fitting program (KaleidaGraph, Synergy software, Reading, Pa.). The absorbance at the midpoint of the titration curve (mid-OD) and its corresponding concentration of the standard were determined. Then the concentration of each variant at this mid-OD was determined, and the concentration of the standard was divided by that of each variant.

Test [4] has as its target T1, human CD20 on WIL2-S cells. The test can be described thus: competitive Scatchard analysis, WIL2-S cells; labelled 125I-2H7.v511; ± standard error of fit.
Procedure: (§1) All dilutions were performed in binding assay buffer (DMEM media containing 0.5% bovine serum albumin, 25 mM HEPES pH 7.2, and 0.01% sodium azide). […] Serial dilutions (0.05 mL) of unlabelled antibody were added and mixed. 30,000 WIL2-S cells in a volume of 0.05 mL was added to each well. The plates were sealed and incubated at room temperature for 24 h, then centrifuged for 15 min at 2,500 RPM. The supernatant was then aspirated and the cell pellets were washed and centrifuged. The supernatant was again aspirated, and the pellets were dissolved in 1N NaOH and transferred to tubes for gamma counting.
In a further test the target is T2, soluble CD20 (Genentech) (UniProt P11836 1-297, limits assumed).
T2 construct: Coated on ELISA plates; also called solubilized CD20
T2 sequence (looked up): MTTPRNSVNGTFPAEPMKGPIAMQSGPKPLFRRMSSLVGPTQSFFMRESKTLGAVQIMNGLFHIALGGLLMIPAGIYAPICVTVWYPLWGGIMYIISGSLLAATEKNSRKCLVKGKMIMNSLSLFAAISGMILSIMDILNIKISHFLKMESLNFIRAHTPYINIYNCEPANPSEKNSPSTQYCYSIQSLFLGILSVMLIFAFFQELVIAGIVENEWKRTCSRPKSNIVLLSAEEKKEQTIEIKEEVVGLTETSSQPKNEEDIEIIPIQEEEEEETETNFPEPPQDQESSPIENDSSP
The test can be described thus: ELISA on plate-coated soluble CD20, bound IgG detected with HRP anti-human Fab, OD450.

Test [5] has as its target T1, human CD20 on WIL2-S cells. The experiment in a line: competitive Scatchard analysis, WIL2-S cells; labelled competitor 125I-2H7.v138; ± standard error of fit.
Procedure: as §1

Sequence of human FcRn (human) (P55899 24-297 limits assumed, chain 1 of 2): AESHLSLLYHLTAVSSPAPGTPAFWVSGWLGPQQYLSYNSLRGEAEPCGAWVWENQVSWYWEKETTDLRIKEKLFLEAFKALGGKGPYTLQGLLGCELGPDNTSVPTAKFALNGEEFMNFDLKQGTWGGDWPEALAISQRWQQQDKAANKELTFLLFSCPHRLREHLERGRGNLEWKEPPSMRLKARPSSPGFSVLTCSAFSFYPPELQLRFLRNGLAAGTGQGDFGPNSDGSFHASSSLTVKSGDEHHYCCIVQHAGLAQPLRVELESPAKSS
Sequence of human FcRn (human) (chain, as listed by the source limits assumed, chain 2 of 2): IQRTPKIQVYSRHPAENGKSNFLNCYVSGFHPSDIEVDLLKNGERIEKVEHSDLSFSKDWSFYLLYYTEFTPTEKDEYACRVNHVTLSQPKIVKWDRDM
Procedure for soluble CD20 (Genentech): As an additional comparison of the binding activity of 2H7 variants, an ELISA was performed with solubilized CD20.
Serial dilutions of samples in 0.5% BSA were incubated on the plates for 2 h. After washing, bound antibodies were detected with HRP-conjugated anti-human Fab antibody (Goat anti-human Ig, Fab′2-HRP conjugate, from NB) using 3,3′,5,5′-tetramethyl benzidine (Kirkegaard and Perry Laboratories, Gaithersburg, Md.) as substrate. Absorbance was read at 450 nm. Titration curves were fit with a four-parameter nonlinear regression curve-fitting program (KaleidaGraph; Synergy Software, Reading, Pa.). Concentrations of antibody variants corresponding to the midpoint absorbance of the titration curve of the standard were calculated.

soluble Fc variant N434A+E380A+T307A returned a fold increase in affinity over wild-type Fc with human FcRn (human) [1] of 14 fold.

As usually defined, the Kd is the concentration at which binding is half-saturated. The low end stands for higher affinity, the high end for lower affinity. parental hingeless Fc (wild-type): in the test with human FcRn (human) [2], the Kd worked out at 700 nM.

On to soluble Fc variant N434W, for which the fold increase in affinity over wild-type Fc with human FcRn (human) [1] came out at 170 fold. In the test with human FcRn (human) [2], the Kd stood at 4 nM. The molecule further registered a fold better binding relative to wild-type Fc with rat FcRn (rat) of 10 fold.

With soluble Fc variant N434F, the fold increase in affinity over wild-type Fc with human FcRn (human) [1] came out at 9 fold.

As to soluble Fc variant N434A, the fold increase in affinity over wild-type Fc with human FcRn (human) [1] turned out to be 2.7 fold.

B1: humanized 2H7.v166 (antibody, human IgG1, kappa, V domains shown)
VH: EVQLVESGGGLVQPGGSLRLSCAASGYTFTSYNMHWVRQAPGKGLEWVGAIYPGNGDTSYNQKFKGRFTISVDKSKNTLYLQMNSLRAEDTAVYYCARVVYYGGDWYFDVWGQGTLVTVSS
VL: DIQMTQSPSSLSASVGDRVTITCRASSSVSYMHWYQQKPGKAPKPLIYAPSNLASGVPSRFSGSGSGTDFTLTISSLQPEDFATYYCQQWSFNPPTFGQGTKVEIKR
notes: IgG1; changes vs v16
Regarding B1, the Relative binding in test [3] was determined as 0.99 ratio.

B2: humanized 2H7.v511 (antibody, human IgG1, kappa)
heavy: EVQLVESGGGLVQPGGSLRLSCAASGYTFTSYNMHWVRQAPGKGLEWVGAIYPGNGATSYNQKFKGRFTISVDKSKNTLYLQMNSLRAEDTAVYYCARVVYYSYRYWYFDVWGQGTLVTVSSASTKGPSVFPLAPSSKSTSGGTAALGCLVKDYFPEPVTVSWNSGALTSGVHTFPAVLQSSGLYSLSSVVTVPSSSLGTQTYICNVNHKPSNTKVDKKVEPKSCDKTHTCPPCPAPELLGGPSVFLFPPKPKDTLMISRTPEVTCVVVDVSHEDPEVKFNWYVDGVEVHNAKTKPREEQYNATYRVVSVLTVLHQDWLNGKEYKCKVSNAALPAPIAATISKAKGQPREPQVYTLPPSREEMTKNQVSLTCLVKGFYPSDIAVEWESNGQPENNYKTTPPVLDSDGSFFLYSKLTVDKSRWQQGNVFSCSVMHEALHNHYTQKSLSLSPGK
light: DIQMTQSPSSLSASVGDRVTITCRASSSVSYLHWYQQKPGKAPKPLIYAPSNLASGVPSRFSGSGSGTDFTLTISSLQPEDFATYYCQQWAFNPPTFGQGTKVEIKRTVAAPSVFIFPPSDEQLKSGTASVVCLLNNFYPREAKVQWKVDNALQSGNSQESVTEQDSKDSTYSLSSTLTLSKADYEKHKVYACEVTHQGLSSPVTKSFNRGEC
notes: Full-length IgG1; VH D56A, N100Y, S100aR; VL M32L, S92A; Fc S298A, K326A, E333A, K334A vs v16; also called hu2H7.v511
The term EC50 (read off the curve) denotes the concentration giving half of the maximal effect. Turning to B2, the results for the Kd in test [4] and in test [5] were 0.45 nM and 0.11 nM, respectively. Besides, the “EC50 (read off the curve)” value with soluble CD20 (Genentech) was about 0.02 µg/mL.
